# Measured values published in the supplement of paper PMC12042874.
# ± gives the uncertainty stated by the source.
# Experiment: amyloid nucleation score (Sup35N fusion, yeast selection) (log enrichment); library NNK3; higher = more nucleation; inactive = no reads after selection
# Summary of the method: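 Growth for 7 days at 30°C on medium lacking adenine and uracil followed a 24-hour induction with 100 μM copper sulfate of psi-negative yeast expressing peptides of 20 random codons fused to Sup35N. Input and output plasmid inserts were sequenced with Illumina, and sequences with under 100 input reads were excluded. Nucleation score is the DiMSum log enrichment of output over input reads, centred on the mode score of non-aggregating sequences.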
row,Substance,amyloid nucleation score
1,TSQYRPERKLRVR,inactive
2,AKIVECM,inactive
3,SMNTHGCFYRRYLSESPFEC,inactive
4,SLWPSRNCVDEEVFDFSDKS,inactive
5,IPVFMLLMYRVSMMDSSSKS,inactive
6,GLMERNDMSEYSSAG,inactive
7,TPLTPSGRLGFLTK,0.7 ± 0.21
8,YNKWCLHLCLRNLSMEEGMD,1.87 ± 0.11
9,LLTWMIG,0.714 ± 0.29
10,WLNEM,inactive
11,NIMVVYPFFYGFKHNWLESI,inactive
12,FVRANYIWWNSWYLECYIGR,inactive
13,DILGVCLSMNYWVI,inactive
14,FTCPASST,inactive
15,YVQSLNR,inactive
16,PFFRASRLWLSLVRMRTLSV,inactive
17,LDAYLWNNCMYVYHLEPYSW,inactive
18,SSFSVSVVSKGKSVRNSGSL,0.568 ± 0.33
19,CVFRYLVHHERMSYILNAGC,inactive
20,FTWARETVPVVQNWFGTREV,inactive
21,RSELASLKGCDIELVFTYQR,inactive
22,SYLVRCVARNLLCFERVRGS,inactive
23,LSYFYKVPLDTAYMW,1.07 ± 0.12

row,Substance,amyloid nucleation score
1,IHYGEYNFLGKSRWNHLFFF,inactive
2,LYTNLTTVDLHCVKNA,inactive
3,FLSYTPRATGYHFFRLSIFC,inactive
4,PWRLIAALACVYTWPLGLRG,inactive
5,NHYATFGCSVTFAIVNWSRF,1.86 ± 0.057
6,MSRGGYWSKVR,inactive
7,ELRCFTQIGLGSCYRFIGYI,0.371 ± 0.74
8,REASCGIDRMIRRCTERLSC,inactive
9,YWNYQMVCFCVNCV,2.17 ± 0.075
10,LFANTYVV,inactive
11,PSVTLQHSGIATWSILDRTL,0.316 ± 0.26
12,LDLIRY,inactive
13,KLQHIFLFFDRS,1.1 ± 0.11
14,LQLLENQSNAIYWHGGNESD,inactive
15,FGTNVLYAFM,inactive
16,GTEYLV,inactive
17,CRGLLYISVNYNMILFQHTR,inactive
18,FLIWGKQPWTRKLLGTIVPV,inactive
19,GLLMFLNVCLVVTVSARTYS,inactive
20,VLLVHGKEWTEMLAHTLRCG,inactive
21,YMRLGRWWSFKAVDGRRLKW,-0.373 ± 1.3
22,NNIIVVKTAS,inactive
23,IFLKHIPRHSSSKTMTANCP,inactive

row,Substance,amyloid nucleation score
1,RSDSADLIKG,inactive
2,DGTMANRIVVF,inactive
3,TKLPNYFWGLKGYHLLALLR,inactive
4,EEVMMRAINQEAPCEPQLRV,inactive
5,FNATCVVGHQVSVCNPWDAH,inactive
6,RAKVNSRGCEESFF,-0.007 ± 0.73
7,LKKYCMYMSSY,inactive
8,WGSMMSWQVKFVSILNPLPR,inactive
9,GMCKGMVIGSAVDFTMFSAA,inactive
10,KEDLTSLVTLEKEALLVSDE,inactive
11,DVNFWSLYKFCTRVDFGLSY,inactive
12,SCGLGLLAVVEKCVVTHRFF,inactive
13,YNYFFPYTNVYNIFSIYKAV,3.6 ± 0.078
14,VTQLWVLNSVSVYWKDLVAP,-0.319 ± 1.1
15,MWGVCSFFAFPHIIFM,1.33 ± 0.11
16,TVRKSRSRSTQDEAFNPGTH,0.111 ± 0.63
17,SIFFIKTYESFDSSLFKSSS,inactive
18,YVWIDYSSVYMD,inactive
19,YWFGWKGGRSVRRVSWSADW,0.13 ± 0.66
20,SMLLVGTPDIIGDS,inactive
21,WNYGTALMLRQIGSGFICIY,inactive
22,HSRLFLGNVTCYWVHEVSLI,inactive
23,VYRYFASKIIKGIFSRCCTF,inactive

row,Substance,amyloid nucleation score
1,QRDHMGFSGDLW,inactive
2,LVMHMRLAWRECDHVSKQMR,0.883 ± 0.15
3,WCRCSFVVLHSVVVCSFGTR,-0.074 ± 0.69
4,RIKYS,inactive
5,SVYGSVFKNRG,inactive
6,LWWCTLYSILYGTLSTYSCS,inactive
7,FWMMDYMYSVRMNFVWGYIR,inactive
8,FLNRSTAIWKYRLIAQRVGD,inactive
9,CMFRLMIPSIKTNAISIALC,0.068 ± 0.9
10,CNLALFTRGWGEYMIVSCCK,inactive
11,YPRKFINLNRHWVVVNVFRM,inactive
12,CLLCGSRHFRHRLGFVSYRI,inactive
13,GGTVFSNCVGVRRLNMYINY,inactive
14,RNFGYIDSKLWP,inactive
15,YSQLCFF,inactive
16,IDVMEYMLASYRVSWYRGLA,inactive
17,KRNSYTMFLA,inactive
18,VRVSRNGSVLY,inactive
19,KNVFGSSFLLVVSYCNISAF,1.95 ± 0.091
20,WLHFCHSAPSEYFVIMRMCK,inactive
21,DHVAG,inactive
22,NNPSHGTRQNTYSALGWDHT,inactive
23,CDTSCWLLSTPLADWTIAFN,inactive

row,Substance,amyloid nucleation score
1,NRQSLGIRSYFC,inactive
2,CRYYNSC,inactive
3,ACTCDRAGDRLVVWLLDGYL,inactive
4,LCTSADYWSHKNRGRAYSRR,inactive
5,SLSHECTSNKTEQVIERRLW,inactive
6,KSSIMKGKLTHRGSQWFASQ,inactive
7,SPARRLAAFGFVVL,-0.385 ± 1.2
8,GSEHYLPSYYRFFLLVFYDV,inactive
9,SVPDTLSDFISCPVNCTFLN,inactive
10,QSKFFGQWFLRQND,0.299 ± 0.21
11,WYLMCWCCLKVPVAQLM,0.671 ± 0.19
12,CASPSGFSSQGVTWFVEV,inactive
13,DSSSWSHL,-0.291 ± 1.4
14,VSLLNITTVMSSPRIQGKHV,1.01 ± 0.12
15,LNDDRISSGYAASIVKGLLT,-0.873 ± 1.4
16,LQSCSCAGLFPDL,inactive
17,CMLCKPWSSQVNSY,inactive
18,LTFLVRDCCTCSICNDGPSR,3.08 ± 0.079
19,CSWRNRYCMLRRELFGAWRV,inactive
20,VEAMQVWDSSFMSCTNLFTS,inactive
21,KSALYADLVGYLGSACMGSR,inactive
22,SSAIMCWRFMLMNSILITTP,inactive
23,LWNVLHDNSHCSLGSTPLGQ,inactive

row,Substance,amyloid nucleation score
1,TSVLSTGCYTRTVTNVNGSI,inactive
2,FCMALRKRNFGRFMSKSKEY,inactive
3,LICYQDLRLLAPWVQG,inactive
4,ADKWSHGAHDRVVLVLRVCR,inactive
5,IDRVMCNHDSIRQQLSLLSV,inactive
6,KSTSFTYFLLNIRLMGYCPC,0.725 ± 0.16
7,RSILVFHSDRLKYGYLMIDV,inactive
8,YKCHMSVYRGFINCNVVLMR,inactive
9,LWYFRFNFTAYNYFLWYDTS,inactive
10,VIFYCFSRILTYKSIVVG,inactive
11,VGERLANQIGTYCDDQWWTW,inactive
12,VGGPNCIQAFS,inactive
13,LLIQNV,inactive
14,FSHGFSIYRLKKT,inactive
15,VWETATNFSISMLWRQAFRM,inactive
16,RIKFNHTAFNWFQIF,1.69 ± 0.091
17,FEDCSTLH,-0.482 ± 0.84
18,SLHWVYYIINYTVALTGVLL,inactive
19,IKSKNAVCCHFATTMQDSLT,inactive
20,LLTFSH,inactive
21,GCSSVRAGH,inactive
22,HISYNHIGEYVKKSDFECSN,inactive
23,ESFESVYR,inactive

row,Substance,amyloid nucleation score
1,KWFMVA,inactive
2,ASATAYSVNLRLKVTVNM,1.71 ± 0.12
3,CKVYGKSLVMAYN,inactive
4,CLCSMHLRWRSSNWRGYEHF,0.474 ± 0.31
5,FYRFISAMFYDWDSWIICGN,0.674 ± 0.12
6,DGKFRSNWSYGVLWMLVFLY,inactive
7,LFFYRMYDGTWKGDLYIASE,inactive
8,NAGHICFVVVTKWREFASVY,inactive
9,STRAVQIRKSRGFAGYPGN,inactive
10,FECDKENSSLDSPFMLAFKD,inactive
11,NREHMAISSCRLVKHCFFWT,inactive
12,HHKMVISVSSRNQSEKRSDW,inactive
13,PEASLLVPMVSSYPLHFA,inactive
14,LFPLMKQYLARGFSQDIRSA,inactive
15,AAGRGWTGEALMHRNAQCDS,0.244 ± 0.87
16,TGYWRIFSCSCLIVCVRLSV,inactive
17,EFGFVNGNRAGWGYFQRRAL,-0.55 ± 2.4
18,VYLDFKGWFVMLSINLNQFY,inactive
19,MKTSNYMVRQCAGIPASTNR,inactive
20,FFPDGDQTYMA,inactive
